This is an account of results in article PMC11476584.

For the assay, the target named is Apolipoprotein E4 (APOE4), overexpressed in transfected Huh7 cells (human) (UniProt P02649). Description: co-IP; APOE precipitated with anti-APOE antibody (sc-13521) and Protein G Sepharose, overnight at 4 °C, from lysates of APOE3- and APOE4-transfected Huh7 cells; Western blot, target bands normalised to the APOE signal. Background: In western blotting, separated proteins are transferred to a membrane and probed.
Sequence of UniProt P02649 (P02649 19-317): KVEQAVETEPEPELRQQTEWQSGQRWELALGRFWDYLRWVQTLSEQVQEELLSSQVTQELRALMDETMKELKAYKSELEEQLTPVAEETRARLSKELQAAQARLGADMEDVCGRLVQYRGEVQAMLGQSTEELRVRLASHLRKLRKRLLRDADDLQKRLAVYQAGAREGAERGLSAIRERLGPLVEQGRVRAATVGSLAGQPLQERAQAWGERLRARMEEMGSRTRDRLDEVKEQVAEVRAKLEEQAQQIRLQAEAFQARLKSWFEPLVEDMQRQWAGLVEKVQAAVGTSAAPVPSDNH

As to “Voltage-dependent anion-selective channel 1 (VDAC1) (from UniProt P21796 1-283) (natural protein)”, the fold change of the target/APOE band against APOE3-transfected cells worked out at 1.2 fold.

B1: Mitochondrial import receptor subunit TOM40 (TOMM40) (natural protein)
chain: MGNVLAASSPPAGPPPPPAPALVGLPPPPPSPPGFTLPPLGGSLGAGTSTSRSSERTPGAATASASGAAEDGACGCLPNPGTFEECHRKCKELFPIQMEGVKLTVNKGLSNHFQVNHTVALSTIGESNYHFGVTYVGTKQLSPTEAFPVLVGDMDNSGSLNAQVIHQLGPGLRSKMAIQTQQSKFVNWQVDGEYRGSDFTAAVTLGNPDVLVGSGILVAHYLQSITPCLALGGELVYHRRPGEEGTVMSLAGKYTLNNWLATVTLGQAGMHATYYHKASDQLQVGVEFEASTRMQDTSVSFGYQLDLPKANLLFKGSVDSNWIVGATLEKKLPPLPLTLALGAFLNHRKNKFQCGFGLTIG
B1 came in with a fold change of the target/APOE band against APOE3-transfected cells of 1.29 fold.

B2: Lon protease (LONP1) (enzyme)
chain: FWEASSRGGGAFSGGEDASEGGAEEGAGGAGGSAGAGEGPVITALTPMTIPDVFPHLPLIAITRNPVFPRFIKIIEVKNKKLVELLRRKVRLAQPYVGVFLKRDDSNESDVVESLDEIYHTGTFAQIHEMQDLGDKLRMIVMGHRRVHISRQLEVEPEEPEAENKHKPRRKSKRGKKEAEDELSARHPAELAMEPTPELPAEVLMVEVENVVHEDFQVTEEVKALTAEIVKTIRDIIALNPLYRESVLQMMQAGQRVVDNPIYLSDMGAALTGAESHELQDVLEETNIPKRLYKALSLLKKEFELSKLQQRLGREVEEKIKQTHRKYLLQEQLKIIKKELGLEKDDKDAIEEKFRERLKELVVPKHVMDVVDEELSKLGLLDNHSSEFNVTRNYLDWLTSIPWGKYSNENLDLARAQAVLEEDHYGMEDVKKRILEFIAVSQLRGSTQGKILCFYGPPGVGKTSIARSIARALNREYFRFSVGGMTDVAEIKGHRRTYVGAMPGKIIQCLKKTKTENPLILIDEVDKIGRGYQGDPSSALLELLDPEQNANFLDHYLDVPVDLSKVLFICTANVTDTIPEPLRDRMEMINVSGYVAQEKLAIAERYLVPQARALCGLDESKAKLSSDVLTLLIKQYCRESGVRNLQKQVEKVLRKSAYKIVSGEAESVEVTPENLQDFVGKPVFTVERMYDVTPPGVVMGLAWTAMGGSTLFVETSLRRPQDKDAKGDKDGSLEVTGQLGEVMKESARIAYTFARAFLMQHAPANDYLVTSHIHLHVPEGATPKDGPSAGCTIVTALLSLAMGRPVRQNLAMTGEVSLTGKILPVGGIKEKTIAAKRAGVTCIVLPAENKKDFYDLAAFITEGLEVHFVEHYREIFDIAFPDEQAEALAVER
With B2, the fold change of the target/APOE band against APOE3-transfected cells worked out at 2.11 fold.
